Test results reported in PMC6754456, “A processive endoglucanase with multi-substrate specificity is characterized from porcine gut microbiota” (Scientific Reports, 2019).

Tested on: O=[N+]([O-])c1ccc(O[C@@H]2O[C@H](CO)[C@@H](O[C@@H]3O[C@H](CO)[C@@H](O)[C@H](O)[C@H]3O)[C@H](O)[C@H]2O)cc1
Test: purified protein
Details: 100 mM MES pH 6.0, 50 °C, 10 min

With p4818Cel5_2A (uncultured bacterium) the Km was 1200 ± 100 µM, the kcat was 1.63 ± 0.0583 s⁻¹ and the kcat/Km was 1350 M⁻¹ s⁻¹.
